Experimental data published in the supplement of paper PMC9876800.

The substances below were run on peptide library, one residue held at a place counted from the S/T acceptor (assay: relative phosphorylation of the sub-library (ratio to the mean residue at this position); human; higher = residue favoured). Settings: E fixed; at +4.
In short: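 In 384-well plates, purified recombinant kinases (human or orthologue constructs) were incubated for 90 min under kinase-specific conditions with 50 μM biotinylated degenerate peptide sub-libraries and 50 μM ATP spiked with γ-32P-ATP. Each sub-library fixed a single residue at one position around a central Ser/Thr. Relative sub-library phosphorylation, measured by phosphorimaging and densitometry of streptavidin membrane spots, is given as a ratio to the mean residue at that position.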

Sequence of MAP4K5, construct: Full length (Q9Y4K4 whole entry, looked up): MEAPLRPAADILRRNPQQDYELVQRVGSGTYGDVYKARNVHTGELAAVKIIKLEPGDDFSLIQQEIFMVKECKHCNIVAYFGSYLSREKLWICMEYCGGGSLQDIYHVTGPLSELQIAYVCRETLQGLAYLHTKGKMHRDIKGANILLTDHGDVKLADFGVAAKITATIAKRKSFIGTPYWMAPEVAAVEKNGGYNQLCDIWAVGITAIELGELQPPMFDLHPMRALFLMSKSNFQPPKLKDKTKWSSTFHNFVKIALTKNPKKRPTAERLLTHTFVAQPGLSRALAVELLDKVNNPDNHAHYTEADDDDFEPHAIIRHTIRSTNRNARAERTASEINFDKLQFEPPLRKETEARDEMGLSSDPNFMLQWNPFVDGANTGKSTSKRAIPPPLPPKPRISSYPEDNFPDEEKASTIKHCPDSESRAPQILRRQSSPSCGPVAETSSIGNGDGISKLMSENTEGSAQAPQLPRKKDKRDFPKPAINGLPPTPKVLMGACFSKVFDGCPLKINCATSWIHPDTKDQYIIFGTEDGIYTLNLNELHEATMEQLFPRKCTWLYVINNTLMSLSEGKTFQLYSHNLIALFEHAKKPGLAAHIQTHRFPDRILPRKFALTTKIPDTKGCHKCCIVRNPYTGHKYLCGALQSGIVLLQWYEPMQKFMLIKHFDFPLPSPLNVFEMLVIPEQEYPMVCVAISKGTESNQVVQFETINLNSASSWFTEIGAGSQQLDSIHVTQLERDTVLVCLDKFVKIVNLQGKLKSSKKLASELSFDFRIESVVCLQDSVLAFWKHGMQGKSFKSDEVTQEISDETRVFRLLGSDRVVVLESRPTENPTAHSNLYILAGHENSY
Sequence of IKBKE, construct: Full length (Q14164 whole entry, looked up): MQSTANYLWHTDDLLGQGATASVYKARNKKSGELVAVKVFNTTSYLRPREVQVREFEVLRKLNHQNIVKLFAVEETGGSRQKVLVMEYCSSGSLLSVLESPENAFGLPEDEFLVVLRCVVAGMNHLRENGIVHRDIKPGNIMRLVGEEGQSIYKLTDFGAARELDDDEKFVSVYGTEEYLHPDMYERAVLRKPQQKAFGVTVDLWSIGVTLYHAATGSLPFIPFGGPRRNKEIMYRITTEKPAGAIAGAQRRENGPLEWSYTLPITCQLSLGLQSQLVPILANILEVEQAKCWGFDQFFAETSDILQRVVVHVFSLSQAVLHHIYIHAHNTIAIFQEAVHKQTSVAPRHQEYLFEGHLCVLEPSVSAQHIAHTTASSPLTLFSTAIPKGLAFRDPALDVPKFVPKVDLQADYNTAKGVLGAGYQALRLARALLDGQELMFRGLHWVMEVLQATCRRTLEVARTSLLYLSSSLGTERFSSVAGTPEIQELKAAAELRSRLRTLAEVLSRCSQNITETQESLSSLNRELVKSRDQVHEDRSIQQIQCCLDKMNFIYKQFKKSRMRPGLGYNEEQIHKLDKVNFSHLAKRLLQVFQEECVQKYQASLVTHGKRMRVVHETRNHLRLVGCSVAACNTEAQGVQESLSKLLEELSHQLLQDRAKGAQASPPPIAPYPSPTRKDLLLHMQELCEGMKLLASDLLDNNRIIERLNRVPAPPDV
Sequence of NEK6, construct: Full length (Q9HC98 whole entry, looked up): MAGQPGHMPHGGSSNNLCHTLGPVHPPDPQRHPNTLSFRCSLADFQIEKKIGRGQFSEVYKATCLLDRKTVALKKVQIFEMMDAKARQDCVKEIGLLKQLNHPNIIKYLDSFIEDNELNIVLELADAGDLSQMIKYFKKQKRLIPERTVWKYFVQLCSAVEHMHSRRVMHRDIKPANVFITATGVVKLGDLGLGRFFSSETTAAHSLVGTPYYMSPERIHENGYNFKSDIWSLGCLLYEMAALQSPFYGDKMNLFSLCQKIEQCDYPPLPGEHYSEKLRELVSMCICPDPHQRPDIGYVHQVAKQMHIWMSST
Sequence of CDK10, construct: Full length (Q15131 whole entry, looked up): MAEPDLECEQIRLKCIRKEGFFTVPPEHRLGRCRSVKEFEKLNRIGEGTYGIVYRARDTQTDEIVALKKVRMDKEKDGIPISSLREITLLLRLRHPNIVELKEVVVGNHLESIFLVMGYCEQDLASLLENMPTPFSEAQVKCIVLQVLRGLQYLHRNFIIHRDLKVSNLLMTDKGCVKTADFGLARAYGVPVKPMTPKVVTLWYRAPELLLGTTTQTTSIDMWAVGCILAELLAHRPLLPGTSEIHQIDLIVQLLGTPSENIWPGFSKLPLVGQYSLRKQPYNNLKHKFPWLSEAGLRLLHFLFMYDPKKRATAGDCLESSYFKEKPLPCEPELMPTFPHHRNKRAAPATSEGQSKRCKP
Sequence of SLK, construct: Full length (Q9H2G2 whole entry, looked up): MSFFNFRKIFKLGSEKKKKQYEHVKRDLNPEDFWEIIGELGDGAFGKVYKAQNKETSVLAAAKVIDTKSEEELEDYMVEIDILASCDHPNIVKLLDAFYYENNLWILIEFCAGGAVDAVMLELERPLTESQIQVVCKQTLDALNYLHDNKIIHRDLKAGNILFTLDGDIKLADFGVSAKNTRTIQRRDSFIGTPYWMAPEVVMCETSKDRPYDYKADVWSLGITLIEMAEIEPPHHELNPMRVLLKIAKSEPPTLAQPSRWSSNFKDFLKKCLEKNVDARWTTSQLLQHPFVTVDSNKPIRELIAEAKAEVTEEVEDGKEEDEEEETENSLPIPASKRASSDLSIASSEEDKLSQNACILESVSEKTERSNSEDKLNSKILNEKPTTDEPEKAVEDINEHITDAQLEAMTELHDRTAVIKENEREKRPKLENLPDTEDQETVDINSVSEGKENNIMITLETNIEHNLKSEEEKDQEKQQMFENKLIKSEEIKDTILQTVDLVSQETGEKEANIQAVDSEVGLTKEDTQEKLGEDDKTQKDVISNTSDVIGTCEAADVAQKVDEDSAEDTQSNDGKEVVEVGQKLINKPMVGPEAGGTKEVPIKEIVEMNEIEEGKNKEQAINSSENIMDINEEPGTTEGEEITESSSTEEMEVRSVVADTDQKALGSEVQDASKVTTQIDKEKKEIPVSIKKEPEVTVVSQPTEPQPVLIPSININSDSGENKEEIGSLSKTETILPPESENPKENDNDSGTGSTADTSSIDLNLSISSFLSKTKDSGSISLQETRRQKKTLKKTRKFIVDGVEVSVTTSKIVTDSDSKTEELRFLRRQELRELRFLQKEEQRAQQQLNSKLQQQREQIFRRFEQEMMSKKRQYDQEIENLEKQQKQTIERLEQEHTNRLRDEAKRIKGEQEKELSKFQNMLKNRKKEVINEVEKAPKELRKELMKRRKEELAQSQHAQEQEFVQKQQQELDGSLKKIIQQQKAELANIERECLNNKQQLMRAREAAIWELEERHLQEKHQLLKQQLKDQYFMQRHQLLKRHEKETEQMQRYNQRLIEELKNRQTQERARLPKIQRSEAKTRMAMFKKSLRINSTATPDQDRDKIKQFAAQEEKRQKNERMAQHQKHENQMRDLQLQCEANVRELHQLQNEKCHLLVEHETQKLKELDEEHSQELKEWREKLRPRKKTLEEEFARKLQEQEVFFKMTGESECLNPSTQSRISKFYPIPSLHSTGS
Sequence of SIK3, construct: aa1-307 (Q9Y2K2 1-307, looked up): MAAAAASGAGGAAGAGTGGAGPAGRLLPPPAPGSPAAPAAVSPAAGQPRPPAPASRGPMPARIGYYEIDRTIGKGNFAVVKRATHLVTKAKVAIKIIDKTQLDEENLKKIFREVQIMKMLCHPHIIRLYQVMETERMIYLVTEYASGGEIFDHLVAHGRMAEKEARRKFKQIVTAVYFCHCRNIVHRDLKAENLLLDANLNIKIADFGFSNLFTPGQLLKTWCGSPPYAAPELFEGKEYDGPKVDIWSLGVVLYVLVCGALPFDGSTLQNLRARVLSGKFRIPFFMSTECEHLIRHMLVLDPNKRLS
Sequence of TNIK, construct: aa1-314 (Q9UKE5 1-314, looked up): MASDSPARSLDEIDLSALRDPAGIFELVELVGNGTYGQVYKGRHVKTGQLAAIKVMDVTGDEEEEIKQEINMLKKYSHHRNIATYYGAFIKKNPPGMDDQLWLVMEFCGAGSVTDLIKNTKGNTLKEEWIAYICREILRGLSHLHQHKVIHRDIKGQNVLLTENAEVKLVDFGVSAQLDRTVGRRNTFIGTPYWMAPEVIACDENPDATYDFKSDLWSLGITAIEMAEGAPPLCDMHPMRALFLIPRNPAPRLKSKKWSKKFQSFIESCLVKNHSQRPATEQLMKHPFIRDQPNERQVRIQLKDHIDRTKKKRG

Going from “NEK6, construct: Full length (from UniProt Q9HC98)” to “SIK3, construct: aa1-307 (from UniProt Q9Y2K2)”, the relative phosphorylation falls from 0.578 to 0.374.

Going from “TNIK, construct: aa1-314 (from UniProt Q9UKE5)” to “SLK, construct: Full length (from UniProt Q9H2G2)”, the relative phosphorylation rises from 0.656 to 0.774.

Work on “CDK10, construct: Full length (from UniProt Q15131)” yielded a relative phosphorylation of 0.337.

Same assay, conditions: E fixed; at -1

Going from “PKN2, construct: aa501-984 (from UniProt Q16513)” to “IKBKE, construct: Full length (from UniProt Q14164)”, the relative phosphorylation rises from 0.719 to 0.97.

First: MAP4K5, construct: Full length (from UniProt Q9Y4K4)
Second: NEK6, construct: Full length (from UniProt Q9HC98)
The relative phosphorylation of the first is lower: 0.455 for the first, 1.96 for the second.

First: SIK3, construct: aa1-307 (from UniProt Q9Y2K2)
Second: TNIK, construct: aa1-314 (from UniProt Q9UKE5)
The relative phosphorylation of the first is lower: 0.495 for the first, 0.682 for the second.

Compared with “SLK, construct: Full length (from UniProt Q9H2G2)”, “CDK10, construct: Full length (from UniProt Q15131)” is lower in relative phosphorylation: 0.33 for the first, 0.231 for the second.

Same assay, conditions: E fixed; at -2

First: PKN2, construct: aa501-984 (from UniProt Q16513)
Second: IKBKE, construct: Full length (from UniProt Q14164)
The relative phosphorylation of the first is lower: 0.357 for the first, 0.821 for the second.

Going from “MAP4K5, construct: Full length (from UniProt Q9Y4K4)” to “NEK6, construct: Full length (from UniProt Q9HC98)”, the relative phosphorylation rises from 0.368 to 1.89.

Compared with “SIK3, construct: aa1-307 (from UniProt Q9Y2K2)”, “TNIK, construct: aa1-314 (from UniProt Q9UKE5)” is higher in relative phosphorylation: 0.272 for the first, 0.577 for the second.

First: SLK, construct: Full length (from UniProt Q9H2G2)
Second: CDK10, construct: Full length (from UniProt Q15131)
The relative phosphorylation of the first is higher: 0.306 for the first, 0.244 for the second.

Same assay, conditions: E fixed; at -3

Going from “PKN2, construct: aa501-984 (from UniProt Q16513)” to “IKBKE, construct: Full length (from UniProt Q14164)”, the relative phosphorylation rises from 0.347 to 1.2.

Going from “MAP4K5, construct: Full length (from UniProt Q9Y4K4)” to “NEK6, construct: Full length (from UniProt Q9HC98)”, the relative phosphorylation rises from 0.553 to 0.611.

First: SIK3, construct: aa1-307 (from UniProt Q9Y2K2)
Second: TNIK, construct: aa1-314 (from UniProt Q9UKE5)
The relative phosphorylation of the first is lower: 0.353 for the first, 0.76 for the second.

First: SLK, construct: Full length (from UniProt Q9H2G2)
Second: CDK10, construct: Full length (from UniProt Q15131)
The relative phosphorylation of the first is higher: 0.686 for the first, 0.276 for the second.

Same assay, conditions: E fixed; at -4

First: PKN2, construct: aa501-984 (from UniProt Q16513)
Second: IKBKE, construct: Full length (from UniProt Q14164)
The relative phosphorylation of the first is lower: 0.669 for the first, 1.23 for the second.

First: MAP4K5, construct: Full length (from UniProt Q9Y4K4)
Second: NEK6, construct: Full length (from UniProt Q9HC98)
The relative phosphorylation of the first is lower: 0.812 for the first, 1.18 for the second.

Going from “SIK3, construct: aa1-307 (from UniProt Q9Y2K2)” to “TNIK, construct: aa1-314 (from UniProt Q9UKE5)”, the relative phosphorylation rises from 0.768 to 1.1.

Going from “SLK, construct: Full length (from UniProt Q9H2G2)” to “CDK10, construct: Full length (from UniProt Q15131)”, the relative phosphorylation falls from 1.08 to 0.361.

Same assay, conditions: E fixed; at -5

Going from “PKN2, construct: aa501-984 (from UniProt Q16513)” to “IKBKE, construct: Full length (from UniProt Q14164)”, the relative phosphorylation rises from 0.522 to 1.27.

Compared with “MAP4K5, construct: Full length (from UniProt Q9Y4K4)”, “NEK6, construct: Full length (from UniProt Q9HC98)” is higher in relative phosphorylation: 0.721 for the first, 1.15 for the second.

First: SIK3, construct: aa1-307 (from UniProt Q9Y2K2)
Second: TNIK, construct: aa1-314 (from UniProt Q9UKE5)
The relative phosphorylation of the first is lower: 0.692 for the first, 0.885 for the second.

Compared with “SLK, construct: Full length (from UniProt Q9H2G2)”, “CDK10, construct: Full length (from UniProt Q15131)” is lower in relative phosphorylation: 1 for the first, 0.293 for the second.

Same assay, conditions: F fixed; at +1

Going from “PKN2, construct: aa501-984 (from UniProt Q16513)” to “IKBKE, construct: Full length (from UniProt Q14164)”, the relative phosphorylation falls from 2.82 to 1.6.

Going from “MAP4K5, construct: Full length (from UniProt Q9Y4K4)” to “NEK6, construct: Full length (from UniProt Q9HC98)”, the relative phosphorylation rises from 1.1 to 1.46.

Compared with “SIK3, construct: aa1-307 (from UniProt Q9Y2K2)”, “TNIK, construct: aa1-314 (from UniProt Q9UKE5)” is higher in relative phosphorylation: 0.727 for the first, 0.89 for the second.

First: SLK, construct: Full length (from UniProt Q9H2G2)
Second: CDK10, construct: Full length (from UniProt Q15131)
The relative phosphorylation of the first is higher: 1.23 for the first, 0.303 for the second.

Same assay, conditions: F fixed; at +2

First: PKN2, construct: aa501-984 (from UniProt Q16513)
Second: IKBKE, construct: Full length (from UniProt Q14164)
The relative phosphorylation of the first is lower: 0.467 for the first, 0.967 for the second.

First: MAP4K5, construct: Full length (from UniProt Q9Y4K4)
Second: NEK6, construct: Full length (from UniProt Q9HC98)
The relative phosphorylation of the first is lower: 0.535 for the first, 0.69 for the second.

Compared with “SIK3, construct: aa1-307 (from UniProt Q9Y2K2)”, “TNIK, construct: aa1-314 (from UniProt Q9UKE5)” is lower in relative phosphorylation: 0.687 for the first, 0.449 for the second.

Compared with “SLK, construct: Full length (from UniProt Q9H2G2)”, “CDK10, construct: Full length (from UniProt Q15131)” is higher in relative phosphorylation: 0.482 for the first, 0.554 for the second.

Same assay, conditions: F fixed; at +3

Going from “PKN2, construct: aa501-984 (from UniProt Q16513)” to “IKBKE, construct: Full length (from UniProt Q14164)”, the relative phosphorylation rises from 0.753 to 1.22.

Going from “MAP4K5, construct: Full length (from UniProt Q9Y4K4)” to “NEK6, construct: Full length (from UniProt Q9HC98)”, the relative phosphorylation rises from 0.704 to 0.987.

Going from “SIK3, construct: aa1-307 (from UniProt Q9Y2K2)” to “TNIK, construct: aa1-314 (from UniProt Q9UKE5)”, the relative phosphorylation falls from 0.914 to 0.465.

Going from “SLK, construct: Full length (from UniProt Q9H2G2)” to “CDK10, construct: Full length (from UniProt Q15131)”, the relative phosphorylation rises from 0.699 to 0.721.

Same assay, conditions: F fixed; at +4

Compared with “PKN2, construct: aa501-984 (from UniProt Q16513)”, “IKBKE, construct: Full length (from UniProt Q14164)” is higher in relative phosphorylation: 0.535 for the first, 1.12 for the second.

Compared with “MAP4K5, construct: Full length (from UniProt Q9Y4K4)”, “NEK6, construct: Full length (from UniProt Q9HC98)” is higher in relative phosphorylation: 0.783 for the first, 0.886 for the second.

Going from “SIK3, construct: aa1-307 (from UniProt Q9Y2K2)” to “TNIK, construct: aa1-314 (from UniProt Q9UKE5)”, the relative phosphorylation falls from 0.724 to 0.632.

Going from “SLK, construct: Full length (from UniProt Q9H2G2)” to “CDK10, construct: Full length (from UniProt Q15131)”, the relative phosphorylation falls from 0.768 to 0.643.

Same assay, conditions: F fixed; at -1

Going from “PKN2, construct: aa501-984 (from UniProt Q16513)” to “IKBKE, construct: Full length (from UniProt Q14164)”, the relative phosphorylation rises from 0.602 to 1.03.

First: MAP4K5, construct: Full length (from UniProt Q9Y4K4)
Second: NEK6, construct: Full length (from UniProt Q9HC98)
The relative phosphorylation of the first is higher: 0.704 for the first, 0.525 for the second.

Going from “SIK3, construct: aa1-307 (from UniProt Q9Y2K2)” to “TNIK, construct: aa1-314 (from UniProt Q9UKE5)”, the relative phosphorylation rises from 0.497 to 0.699.

First: SLK, construct: Full length (from UniProt Q9H2G2)
Second: CDK10, construct: Full length (from UniProt Q15131)
The relative phosphorylation of the first is higher: 0.781 for the first, 0.669 for the second.
